Biological target: IFP2.0 (Deinococcus radiodurans)
Assay: SEC

stoichiometry N: 2
Substance: IFP2.0
